± gives the uncertainty stated by the source.
B1: Homeobox protein cut-like 1, residues 548 to 629; numbered along this chain, P39880 (parent)
chain: GEEMDTAEIARQVKEQLIKHNIGQRIFGHYVLGLSQGSVSEILARPKPWNKLTVRGKEPFHKMKQFLSDEQNILALRSIQGR

Variants of: B1
Assay: abundance fitness (aPCA) (normalised: wild type 0, dead -1); higher = more abundant; growth selection in yeast, the domain comes from the species named
Details: Homo sapiens

Variant | abundance fitness
S38F | -0.181 ± 0.071
S38M | 0.11 ± 0.034
S38T | -0.005 ± 0.031
S38P | -0.079 ± 0.032
S38D | 0.125 ± 0.045
S38R | -0.711 ± 0.038
S38E | 0.141 ± 0.026
S38G | -0.049 ± 0.022
S38A | 0.072 ± 0.025
S38L | -0.005 ± 0.029
S38Q | 0.113 ± 0.034
S38V | 0.097 ± 0.026
S38C | 0.025 ± 0.04
S38I | -0.008 ± 0.067
S38H | -0.031 ± 0.051
S35I | -0.308 ± 0.084
S35K | -0.035 ± 0.033
S35H | -0.238 ± 0.052
S35P | 0.062 ± 0.037
S35F | -0.126 ± 0.087
S35R | -0.209 ± 0.026

Variant | abundance fitness
S35V | -0.236 ± 0.031
S35M | -0.278 ± 0.038
S35L | -0.384 ± 0.036
S35Q | -0.029 ± 0.032
S35Y | -0.298 ± 0.08
S35N | -0.081 ± 0.058
S35A | -0.112 ± 0.027
S35W | -0.311 ± 0.036
S35C | -0.086 ± 0.052
S35G | -0.039 ± 0.024
S35D | 0.154 ± 0.045
H29K | 0.022 ± 0.036
H29F | -0.15 ± 0.065
H29M | -0.052 ± 0.037
H29L | -0.1 ± 0.03
H29Y | -0.125 ± 0.06
H29N | -0.012 ± 0.054
H29D | -0.036 ± 0.047
H29W | -0.102 ± 0.031
H29E | 0.06 ± 0.031
H29P | -0.621 ± 0.065

Variant | abundance fitness
H29T | -0.022 ± 0.038
H29R | -0.051 ± 0.024
H29S | -0.081 ± 0.033
H29Q | 0.038 ± 0.035
H29G | -0.357 ± 0.026
Y30N | -0.282 ± 0.058
Y30F | -0.126 ± 0.059
Y30K | -0.091 ± 0.034
Y30V | -0.053 ± 0.028
Y30I | -0.024 ± 0.065
Y30T | -0.147 ± 0.035
Y30P | -0.742 ± 0.064
Y30C | -0.065 ± 0.046
Y30Q | -0.099 ± 0.036
Y30G | -0.552 ± 0.029
Y30E | -0.034 ± 0.029
Y30M | -0.122 ± 0.039
Y30A | -0.082 ± 0.029
Y30R | -0.201 ± 0.025
Y30L | -0.111 ± 0.031
Y30H | 0.014 ± 0.052

Variant | abundance fitness
Y30W | -0.184 ± 0.03
Y30D | -0.337 ± 0.055
V39T | 0.086 ± 0.033
V39E | -0.456 ± 0.035
V39N | -0.697 ± 0.14
V39D | -0.732 ± 0.078
V39L | -0.101 ± 0.031
V39F | -0.165 ± 0.093
V39Y | -0.574 ± 0.11
V39G | -0.725 ± 0.033
V39W | -0.33 ± 0.038
V39P | -0.642 ± 0.055
V39K | -0.898 ± 0.079
V39I | -0.212 ± 0.067
V39C | -0.025 ± 0.046
V39R | -0.915 ± 0.043
V39H | -0.844 ± 0.12
V39A | -0.177 ± 0.028
V39Q | -0.676 ± 0.062
V39M | -0.249 ± 0.039
V39S | -0.316 ± 0.037

From the Human Domainome abundance scans (Beltran et al. 2025)
